By Kd is commonly meant the constant that tells how readily two partners part at equilibrium. A lower Kd goes with higher affinity. A word on the Ki: it is the equilibrium dissociation constant of an inhibitor or competing ligand from its target. In general, Km refers to the substrate concentration at which the rate is half of its maximum. By stoichiometry N is commonly meant a count of units in the complex or per binding partner.

Data set [1] addresses T1, wild-type full length pyruvate kinase (WT Pyk) (Bacillus subtilis, UniProt P80885). As to the kind of experiment: LDH-coupled assay, fit to nonessential activation equation. In kind it is biochemical.
The target in data set [2] is T1, wild-type full length pyruvate kinase (WT Pyk). In kind it is biochemical.
Data set [3] shares this target. As to the kind of experiment: LDH-coupled assay, NADH absorbance at […] nm. In kind it is biochemical.
Substrate in the data set “purified protein”: Nc1ncnc2c1ncn2[C@@H]1O[C@H](COP(=O)(O)OP(=O)(O)O)[C@@H](O)[C@H]1O
As to the kind of experiment: purified protein. The settings on record: pH 7.5.

Data set [4] deals with the molecule itself. As to the kind of experiment: SEC; 100 µL of 100 µM protein on Superdex200 26/60; 20 mM Tris-Cl pH 7.5, 300 mM NaCl, 1 mM EDTA, 1 mM DTT, 10% glycerol; 3 mL/min, 4°C; mass from a standard curve of partition coefficients. On the technique in general: Size exclusion chromatography separates by hydrodynamic size, large species first.

In the case of `O=P(O)(O)OC[C@H]1OC(O)[C@H](O)[C@@H]1O` (stereo partly shown) [R5P], in data set [1], the Kd came out at 570 ± 40 µM.
Regarding `Nc1ncnc2c1ncn2[C@@H]1O[C@H](COP(=O)(O)O)[C@@H](O)[C@H]1O` [AMP], the “LDH-coupled assay, NADH absorbance at 340 nm” value in data set [2] was “wild-type B. subtilis pyruvate kinase was activated by AMP or R5P (Fig. S3a)”.
The molecule `Nc1ncnc2c1ncn2[C@@H]1O[C@H](COP(=O)(O)OP(=O)(O)OP(=O)(O)O)[C@@H](O)[C@H]1O` [ATP] had a Ki in data set [3] of 520 ± 50 µM.

B1: Bacillus subtilis pyruvate kinase lacking the extra C-terminal domain (residues 1-474) (domain or fragment, B. subtilis, UniProt P80885 1-474, looked up)
chain: MRKTKIVCTIGPASESIEMLTKLMESGMNVARLNFSHGDFEEHGARIKNIREASKKLGKNVGILLDTKGPEIRTHTMENGGIELETGKELIISMDEVVGTTDKISVTYEGLVHDVEQGSTILLDDGLIGLEVLDVDAAKREIKTKVLNNGTLKNKKGVNVPGVSVNLPGITEKDARDIVFGIEQGVDFIAPSFIRRSTDVLEIRELLEEHNAQDIQIIPKIENQEGVDNIDAILEVSDGLMVARGDLGVEIPAEEVPLVQKELIKKCNALGKPVITATQMLDSMQRNPRPTRAEASDVANAIFDGTDAIMLSGETAAGSYPVEAVQTMHNIASRSEEALNYKEILSKRRDQVGMTITDAIGQSVAHTAINLNAAAIVTPTESGHTARMIAKYRPQAPIVAVTVNDSISRKLALVSGVFAESGQNASSTDEMLEDAVQKSLNSGIVKHGDLIVITAGTVGESGTTNLMKVHTVGD
notes: pyruvate kinase (Pyk) of Bacillus subtilis, N-terminal residues 1-474, without the extra C-terminal domain (ECTD); in pLIC-trPC-HA (plasmid pJW724); This looks larger than untagged residues 1-474, although the methods say the His tag was removed with TEV protease; also called PykΔECTD; ΔECTD pyruvate kinase; source: E. coli BL21 (DE3), purified (HisTrap FF, TEV digestion, size-exclusion …)
Turning to B1, in the data set “purified protein”, the Km was 1830 ± 240 µM. Further, in data set [4], the “stoichiometry N” value is 4.

B2: Bacillus subtilis pyruvate kinase, wild-type full length (enzyme, B. subtilis, UniProt P80885 1-585, looked up)
chain: MRKTKIVCTIGPASESIEMLTKLMESGMNVARLNFSHGDFEEHGARIKNIREASKKLGKNVGILLDTKGPEIRTHTMENGGIELETGKELIISMDEVVGTTDKISVTYEGLVHDVEQGSTILLDDGLIGLEVLDVDAAKREIKTKVLNNGTLKNKKGVNVPGVSVNLPGITEKDARDIVFGIEQGVDFIAPSFIRRSTDVLEIRELLEEHNAQDIQIIPKIENQEGVDNIDAILEVSDGLMVARGDLGVEIPAEEVPLVQKELIKKCNALGKPVITATQMLDSMQRNPRPTRAEASDVANAIFDGTDAIMLSGETAAGSYPVEAVQTMHNIASRSEEALNYKEILSKRRDQVGMTITDAIGQSVAHTAINLNAAAIVTPTESGHTARMIAKYRPQAPIVAVTVNDSISRKLALVSGVFAESGQNASSTDEMLEDAVQKSLNSGIVKHGDLIVITAGTVGESGTTNLMKVHTVGDIIAKGQGIGRKSAYGPVVVAQNAKEAEQKMTDGAVLVTKSTDRDMIASLEKASALITEEGGLTSHAAVVGLSLGIPVIVGLENATSILTDGQDITVDASRGAVYQGRASVL
notes: This looks larger than the untagged protein, although the methods say the His tag was removed with TEV protease; also called WT Pyk; WT; source: E. coli BL21 (DE3), purified (HisTrap FF, TEV digestion, size-exclusion chromatography); not shown: His6, N-terminal, cleaved
For the molecule B2, in “purified protein”, the Km amounted to 1010 ± 30 µM. For the same molecule, the “stoichiometry N” value in data set [4] came to 4.

The values are drawn from article PMC11834443, “Allosteric regulation of pyruvate kinase enables efficient and robust gluconeogenesis by preventing metabolic conflicts and carbon overflow” (mSystems, 2025).
